Measured values reported in patent US9266964.
Changes are numbered by the printed parent chain. Each block holds one binder with its values, some of them ahead of it.

How the values were obtained:
human plasma kallikrein [1] = biological target: T1, human plasma kallikrein (human, UniProt P03952 20-390; P03952 391-638); test: ELISA; signal on coated biotinylated human plasma kallikrein divided by signal on streptavidin; Fab
T1 construct: two disulfide-linked chains; also called pKal; human pKal
From the text: Abbreviations used: "T/B" is the ELISA signal obtained using of the target (biotinylated plasma kallikrein) divided by the ELISA signal of the "background" (streptavidin); both of which were coated on microtiter plates. "nd" is not determined. The symbol "q" refers to the amber suppressible stop codon (TAG), which is translated as glutamine (Q) in strains of E. coli such as the TG1 cells that were used to express the Fab fragments.
T1 sequence (P03952 20-390, chain 1 of 2): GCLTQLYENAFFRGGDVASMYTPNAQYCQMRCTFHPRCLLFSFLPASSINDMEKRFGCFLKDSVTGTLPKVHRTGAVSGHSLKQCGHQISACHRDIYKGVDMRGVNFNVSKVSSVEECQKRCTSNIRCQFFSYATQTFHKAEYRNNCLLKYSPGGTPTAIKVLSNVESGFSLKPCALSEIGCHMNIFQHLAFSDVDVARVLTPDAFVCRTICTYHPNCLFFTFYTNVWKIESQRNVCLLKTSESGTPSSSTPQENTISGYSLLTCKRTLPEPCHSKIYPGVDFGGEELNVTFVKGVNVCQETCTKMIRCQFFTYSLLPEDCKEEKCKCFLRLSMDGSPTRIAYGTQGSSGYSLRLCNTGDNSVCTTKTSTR
T1 sequence (P03952 391-638, chain 2 of 2): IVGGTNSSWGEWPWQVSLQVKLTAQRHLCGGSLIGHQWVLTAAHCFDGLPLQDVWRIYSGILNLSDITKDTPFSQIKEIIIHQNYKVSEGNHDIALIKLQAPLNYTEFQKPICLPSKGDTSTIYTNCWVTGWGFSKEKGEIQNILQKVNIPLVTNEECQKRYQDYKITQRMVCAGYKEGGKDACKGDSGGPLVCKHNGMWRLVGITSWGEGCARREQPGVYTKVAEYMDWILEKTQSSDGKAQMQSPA

human plasma kallikrein [2] = biological target: human plasma kallikrein (human, UniProt P03952 20-390; P03952 391-638); test: cell-based or functional assay
Target sequence in this assay (P03952 20-390, chain 1 of 2): as the sequence (P03952 20-390, chain 1 of 2) above
Target sequence in this assay (P03952 391-638, chain 2 of 2): as the sequence (P03952 391-638, chain 2 of 2) above

- % inhibition at 10 nM (human plasma kallikrein [2]): 93%
B8: M206-A06 (Fab, V domains shown)
VH: EVQLLESGGGLVQPGGSLRLSCAASGFTFSNYMMGWVRQAPGKGLQWVSSISPSGGLTKYADSVKGRFTISRDNSKNTLYLQMNSLRAEDTAVYYCARVARGIAARSRTSYFDYWGQGTLVTVSS
VL: DIQMTQSPGTLSLSPGERATLSCRTSQFVNSNYLAWYQQTPGQAPRLLIYGASSRATGIPDRFSGTGYGTDFTLTISRLEPEDYGTYYCQQSSRTPWTFGQGTRVEIK

- % inhibition at 10 nM (human plasma kallikrein [2]): 86.7%
B11: M208-G02 (Fab, V domains shown)
VH: B8 VH with N31H, M33L, G35T, Q46E, S50Y, L57H, K59I, A105D, F112S
VL: B8 VL

- % inhibition at 10 nM (human plasma kallikrein [2]): 85.9%
B12: M205-H08 (Fab, V domains shown)
VH: B8 VH with N31D, G35M, Q46E, S52V, L57H, K59Q
VL: B8 VL

- % inhibition at 10 nM (human plasma kallikrein [2]): 86.8%
B13: M209-C02 (Fab, V domains shown)
VH: B8 VH with N31H, M33L, G35T, Q46E, S50Y, L57H, K59I, A105Y, S107R
VL: B8 VL

- % inhibition at 10 nM (human plasma kallikrein [2]): 85.4%
B14: M209-D12 (Fab, V domains shown)
VH: B8 VH with N31H, M33L, G35T, Q46E, S50Y, L57H, K59I, R98T, Y114Q
VL: B8 VL

- % inhibition at 10 nM (human plasma kallikrein [2]): 87.6%
B15: M206-H01 (Fab, V domains shown)
VH: B8 VH with N31E, G35V, Q46E, S50R, L57T, K59E
VL: B8 VL

- % inhibition at 10 nM (human plasma kallikrein [2]): 90.9%
B17: M207-A04 (Fab, V domains shown)
VH: B8 VH with N31H, M33L, G35T, Q46E, S50Y, L57H, K59I, S110R, Y111S
VL: B8 VL

- % inhibition at 10 nM (human plasma kallikrein [2]): 90.1%
B18: M208-B01 (Fab, V domains shown)
VH: B8 VH with N31H, M33L, G35T, Q46E, S50Y, L57H, K59I, Y111F, Y114Q
VL: B8 VL

- % inhibition at 10 nM (human plasma kallikrein [2]): 89.8%
B19: M209-G07 (Fab, V domains shown)
VH: B8 VH with N31H, M33L, G35T, Q46E, S50Y, L57H, K59I, Y114T
VL: B8 VL

- % inhibition at 10 nM (human plasma kallikrein [2]): 86.8%
B20: M206-F09 (Fab, V domains shown)
VH: B8 VH with N31V, G35S, Q46E, S52V, L57S, K59T
VL: B8 VL

- % inhibition at 10 nM (human plasma kallikrein [2]): 87.3%
B21: M209-B11 (Fab, V domains shown)
VH: B8 VH with N31H, M33L, G35T, Q46E, S50Y, L57H, K59I, S110R, F112I, Y114Q
VL: B8 VL

- % inhibition at 10 nM (human plasma kallikrein [2]): 85.3%
B22: M209-H09 (Fab, V domains shown)
VH: B8 VH with N31H, M33L, G35T, Q46E, S50Y, L57H, K59I, S110V, Y114H
VL: B8 VL

- % inhibition at 10 nM (human plasma kallikrein [2]): 85.5%
B23: M210-H01 (Fab, V domains shown)
VH: B8 VH with N31H, M33L, G35T, Q46E, S50Y, L57H, K59I, T109N, Y111Q, F112Q
VL: B8 VL

Second part, the binder before the results:

B1: M8-H04 (Fab, V domains shown)
VH: EVQLLESGGGLVQPGGSLRLSCAASGFTFSGYWMGWVRQAPGKGLEWVSSISSSGGWTQYADSVKGRFTISRDNSKNTLYLQMNSLRAEDTATYYCARDDEIAAGGAFDIWGQGAMVTVSS
VL: DIQMTQSPSSLSASIGDRVTITCRASQYISTYLNWYEQKPGKAPKLLIYGTSSLQSGVPSRFSGSGSGTEFSLTISSLQPEDFATYYCQQSFTTPFTFGQGTKLEIK
notes: Fab fragment (E. coli TG1); printed HC runs into the start of CH1
- Human pKal ELISA (T/B) (human plasma kallikrein [1]): 3.3 T/B (target signal / background signal)

B2: M6-D03 (Fab, V domains shown)
VH: EVQLLESGGGLVQPGGSLRLSCAASGFTFSKYFMGWVRQAPGKGLEWVSVIGSSGGWTSYADSVKGRFTISRDNSKNTLYLQMNSLRAEDTAVYYCARVSTAVADNDYWGQGTLVTVSS
VL: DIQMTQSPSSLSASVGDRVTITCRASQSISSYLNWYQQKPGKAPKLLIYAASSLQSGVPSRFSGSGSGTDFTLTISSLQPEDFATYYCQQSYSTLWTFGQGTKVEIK
notes: as for B1
- Human pKal ELISA (T/B) (human plasma kallikrein [1]): 15.5 T/B (target signal / background signal)

B3: M9-A03 (Fab, V domains shown)
VH: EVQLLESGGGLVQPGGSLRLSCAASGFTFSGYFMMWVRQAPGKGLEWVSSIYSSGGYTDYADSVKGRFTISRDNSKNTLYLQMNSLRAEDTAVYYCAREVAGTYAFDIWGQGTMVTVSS
VL: DIQMTQSPSSLSASLGDRVTITCRASQNIDIYLNWYQQTPGKAPKLLIYGAYNLQSGVPSRFSGSGSGTDFTLTISSLQPEDFGTYYCQQSYGTPVFGQGTKLEIK
notes: as for B1
- Human pKal ELISA (T/B) (human plasma kallikrein [1]): 14.4 T/B (target signal / background signal)

B4: M8-G09 (Fab, V domains shown)
VH: EVQLLESGGGLVQPGGSLRLSCAASGFTFSLYEMLWVRQAPGKGLEWVSVIYPSGGYTDYADSVKGRFTISRDNSKNTLYLQMNSLRAEDMAVYYCARSFSGFGEIDYWGQGTLVTVSS
VL: DIQMTQSPSSLSASVGDTVTITCRASQGVSYYLAWFQQKPGKAPKSLIYGASSLQSGVPSKFSGSGSGTVFTLTISSLQPDDFATYYCQQYNTYPPTFGQGTRLDIK
notes: as for B1
- Human pKal ELISA (T/B) (human plasma kallikrein [1]): 28.2 T/B (target signal / background signal)

B5: M8-C04 (Fab, V domains shown)
VH: EVQLLESGGGLVQPGGSLRLSCAASGFTFSYYPMQWVRQAPGKGLEWVSYIYPSGGLTSYADSVKGRFTISRDNSKNTLYLQMNSLRAEDTAVYYCARLFYGSGSVGFEYWGQGTLVTVSS
VL: QSALTQPPSVSVSPGQTASITCSGDKLGDKYTSWHQQKPGQSPVLVIYQDSKRPSGIPERFSGSNSGNTATLTISGTQAMDEADYYCQAWDSSTVFGGGTRLTVL
notes: as for B1
- Human pKal ELISA (T/B) (human plasma kallikrein [1]): 44.7 T/B (target signal / background signal)

B6: M6-G05 (Fab, V domains shown)
VH: EVQLLESGGGLVQPGGSLRLSCAASGFTFSRYRMVWVRQAPGKGLEWVSSIYPSGGMTAYADSVKGRFTISRDNSKNTLYLQMNSLRAEDTAVYYCARDAVGIGDAFDIWGQGTMVTVSS
VL: DIQMTQSPSSLSASVGDRVTITCRASQSISTYLNWYQLKPGKAPKLLIYNAFSMERGVPSTISGSGSGTDFTLTISSLQPEDFATYYCQQSYTTPTTFGQGTKVEIK
notes: as for B1
- Human pKal ELISA (T/B) (human plasma kallikrein [1]): 18.5 T/B (target signal / background signal)

B7: M8-E06 (Fab, V domains shown)
VH: EVQLLESGGGLVQPGGSLRLSCAASGFTFSHYFMTWVRQAPGKGLEWVSSIVPSGGMTQYADSVKGRFTISRDNSKNTLYLQMNSLRAEDTAVYYCARDSYSSSWFDIWGQGTMVTVSS
VL: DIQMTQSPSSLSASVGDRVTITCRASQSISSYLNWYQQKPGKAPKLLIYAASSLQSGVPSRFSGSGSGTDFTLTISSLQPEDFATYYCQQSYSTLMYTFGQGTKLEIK
notes: as for B1
- Human pKal ELISA (T/B) (human plasma kallikrein [1]): 8.8 T/B (target signal / background signal)

B9: M205-C11 (Fab, V domains shown)
VH: B8 VH with N31Q, G35M, Q46E, S50R, L57S, K59L
VL: B8 VL
- % inhibition at 10 nM (human plasma kallikrein [2]): 86.5%

B10: M204-A02 (Fab, V domains shown)
VH: B8 VH with N31D, G35T, S50Y, K59S
VL: B8 VL
- % inhibition at 10 nM (human plasma kallikrein [2]): 89.5%

B16: M204-E12 (Fab, V domains shown)
VH: B8 VH with N31T, G35Q, Q46E, S50Y, S52G, L57K, K59D
VL: B8 VL
- % inhibition at 10 nM (human plasma kallikrein [2]): 84.1%

B24: M8-D05 (Fab, V domains shown)
VH: EVQLLESGGGLVQPGGSLRLSCAASGFTFSLYNMNWVRQAPGKGLEWVSSISPSGGFTDYADSVKGRFTISRDNSKNTLYLQMNSLRAEDTAVYYCARDLDLGILDYWGQGTLVTVSS
VL: DIQMTQSPSFVSASVGDRVTITCRASQDISSWLVWYQQKPGKGPKLLIYDASNLQSGVPSRFSGGGSGTHFTLTISSLQPEDFATYYCQQADGFPLTFGGGTKVEMK
notes: as for B1
- Human pKal ELISA (T/B) (human plasma kallikrein [1]): 11.9 T/B (target signal / background signal)

B25: M6-D08 (Fab, V domains shown)
VH: EVQLLESGGGLVQPGGSLRLSCAASGFTFSRYHMVWVRQAPGKGLEWVSSISPSGGWTNYADSVKGRFTISRDNSKNTLYLQMNSLRAEDTAMYYCAREMATIAGQFDPWGQGTLVTVSS
VL: DIQMTQSPSSLSASVGDRVTITCRASQSISSYLNWYQQKPGKAPKLLIYGASSLQSGVPSRFSGSGSGTDFTLTISSLQPEDSATYYCQQSYTRWTFGQGTKVEIK
notes: Fab fragment (E. coli TG1); printed HC runs into the start of CH1; The LC is printed with an amber codon 'q' (WYqQK), written here as Q
- Human pKal ELISA (T/B) (human plasma kallikrein [1]): 16 T/B (target signal / background signal)
